According to patent publication US12460006B2, “Antibodies against integrin alpha 11 beta 1” (Momenta Pharmaceuticals, Inc., priority 2019, dated 2025):

T1: α11β1 expressed on the surface of CHO-K1 cells (Homo sapiens, UniProt Q9UKX5)
T1 construct: expressed in transfected cells; host or cells: CHO-K1
T1 sequence (Q9UKX5 23-1188): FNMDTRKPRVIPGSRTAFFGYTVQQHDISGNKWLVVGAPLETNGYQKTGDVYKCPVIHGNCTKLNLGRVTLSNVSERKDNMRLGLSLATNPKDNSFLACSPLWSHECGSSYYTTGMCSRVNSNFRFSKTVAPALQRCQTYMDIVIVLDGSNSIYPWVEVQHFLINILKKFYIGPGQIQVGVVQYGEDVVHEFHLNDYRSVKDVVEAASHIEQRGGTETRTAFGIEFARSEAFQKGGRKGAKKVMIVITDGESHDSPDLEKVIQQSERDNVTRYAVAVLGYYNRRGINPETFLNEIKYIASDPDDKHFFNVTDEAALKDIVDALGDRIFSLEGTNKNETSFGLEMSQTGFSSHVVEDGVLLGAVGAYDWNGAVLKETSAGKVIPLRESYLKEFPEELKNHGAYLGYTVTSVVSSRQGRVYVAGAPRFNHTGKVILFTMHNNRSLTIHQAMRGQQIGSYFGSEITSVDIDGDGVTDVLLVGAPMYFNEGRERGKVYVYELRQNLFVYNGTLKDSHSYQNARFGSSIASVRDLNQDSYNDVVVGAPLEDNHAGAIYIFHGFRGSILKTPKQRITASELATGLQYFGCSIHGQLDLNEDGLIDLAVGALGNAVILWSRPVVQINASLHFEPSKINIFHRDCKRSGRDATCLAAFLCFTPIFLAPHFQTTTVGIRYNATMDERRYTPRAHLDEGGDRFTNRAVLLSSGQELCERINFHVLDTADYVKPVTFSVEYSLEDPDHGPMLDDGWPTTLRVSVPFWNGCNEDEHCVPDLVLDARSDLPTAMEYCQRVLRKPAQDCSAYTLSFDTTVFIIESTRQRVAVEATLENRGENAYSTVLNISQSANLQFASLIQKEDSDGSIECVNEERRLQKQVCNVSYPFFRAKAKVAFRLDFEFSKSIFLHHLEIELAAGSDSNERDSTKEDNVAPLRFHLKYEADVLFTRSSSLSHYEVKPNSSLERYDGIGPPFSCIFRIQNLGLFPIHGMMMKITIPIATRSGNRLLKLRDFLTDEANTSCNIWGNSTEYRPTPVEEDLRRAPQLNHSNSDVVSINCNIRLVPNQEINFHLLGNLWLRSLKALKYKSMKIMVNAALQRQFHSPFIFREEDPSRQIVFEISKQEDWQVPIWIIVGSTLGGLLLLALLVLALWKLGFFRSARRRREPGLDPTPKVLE


Experiments:
α1β1, α2β1 and/or α10β1 = assay: Counter-screen for cross-reactivity to other collagen receptors; assay type: binding, human; conditions: cross-reactivity to α1β1, α2β1, α10β1
How it was run: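 Cross-reactivity was checked by ELISA counter-screen on human α1β1, α2β1 and α10β1. Tested material was hybridoma clones from rats or mice immunized with α11β1, previously selected for binding to soluble human and mouse α11β1.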

mouse α11β1 = mouse α11β1 (Mus musculus, UniProt P61622); assay: ELISA binding to recombinant mouse α11β1; conditions: binding Yes/No
How it was run: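 Plate coat: 0.25 μg/mL α11β1 (human or mouse), o/n 4° C. Block PBS/2% BSA/0.05% Tween-20 1 h RT; antibody dilution series 1 h RT. Biotin anti-IgG 1 h, SA-HRP 1 h, TMB 5 min, stop, A450.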

[1] = biological target: T1, α11β1 expressed on the surface of CHO-K1 cells; assay: FACS antibody binding to CHO-K1 cells expressing human α11; conditions: binding Yes/No
How it was run: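 Wild-type or human α11-transfected CHO-K1 cells (endogenous β1) were incubated with antibody at varied concentrations for 30 min at 4° C, then secondary antibody (1:100) 30 min at 4° C. Cells were PFA-fixed and read by flow cytometry; binding EC50 estimated from FACS data.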

mouse α11β1, sequence (P61622 23-1141 limits assumed): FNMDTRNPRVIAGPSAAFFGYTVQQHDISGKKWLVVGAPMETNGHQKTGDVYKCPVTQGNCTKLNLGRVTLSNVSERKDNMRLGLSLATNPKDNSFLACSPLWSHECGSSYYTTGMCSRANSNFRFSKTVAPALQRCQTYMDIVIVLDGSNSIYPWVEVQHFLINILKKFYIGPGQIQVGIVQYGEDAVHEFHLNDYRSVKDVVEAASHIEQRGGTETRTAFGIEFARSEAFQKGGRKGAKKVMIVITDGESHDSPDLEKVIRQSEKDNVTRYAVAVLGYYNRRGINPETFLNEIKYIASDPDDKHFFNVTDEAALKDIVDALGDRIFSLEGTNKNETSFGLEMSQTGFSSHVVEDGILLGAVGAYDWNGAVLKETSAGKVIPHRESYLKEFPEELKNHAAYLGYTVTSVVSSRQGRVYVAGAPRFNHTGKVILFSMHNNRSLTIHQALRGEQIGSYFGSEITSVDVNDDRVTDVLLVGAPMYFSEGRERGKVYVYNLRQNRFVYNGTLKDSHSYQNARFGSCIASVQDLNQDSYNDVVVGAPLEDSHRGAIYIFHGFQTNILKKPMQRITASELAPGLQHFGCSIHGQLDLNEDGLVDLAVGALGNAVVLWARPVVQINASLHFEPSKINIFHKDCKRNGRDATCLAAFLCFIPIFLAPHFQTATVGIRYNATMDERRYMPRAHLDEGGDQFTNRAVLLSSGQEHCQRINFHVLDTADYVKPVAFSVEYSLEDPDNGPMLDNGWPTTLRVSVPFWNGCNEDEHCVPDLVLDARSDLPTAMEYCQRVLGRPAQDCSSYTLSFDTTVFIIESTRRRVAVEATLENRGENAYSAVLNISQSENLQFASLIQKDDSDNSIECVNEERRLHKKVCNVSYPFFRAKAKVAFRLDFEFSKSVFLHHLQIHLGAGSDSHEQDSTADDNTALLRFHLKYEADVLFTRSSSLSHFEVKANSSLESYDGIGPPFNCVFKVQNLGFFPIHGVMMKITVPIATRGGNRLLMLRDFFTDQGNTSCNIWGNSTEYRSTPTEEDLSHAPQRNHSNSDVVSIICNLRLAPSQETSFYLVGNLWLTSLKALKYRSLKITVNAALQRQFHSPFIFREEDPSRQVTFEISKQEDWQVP
mouse α11β1, sequence (P09055 21-728 partner limits assumed): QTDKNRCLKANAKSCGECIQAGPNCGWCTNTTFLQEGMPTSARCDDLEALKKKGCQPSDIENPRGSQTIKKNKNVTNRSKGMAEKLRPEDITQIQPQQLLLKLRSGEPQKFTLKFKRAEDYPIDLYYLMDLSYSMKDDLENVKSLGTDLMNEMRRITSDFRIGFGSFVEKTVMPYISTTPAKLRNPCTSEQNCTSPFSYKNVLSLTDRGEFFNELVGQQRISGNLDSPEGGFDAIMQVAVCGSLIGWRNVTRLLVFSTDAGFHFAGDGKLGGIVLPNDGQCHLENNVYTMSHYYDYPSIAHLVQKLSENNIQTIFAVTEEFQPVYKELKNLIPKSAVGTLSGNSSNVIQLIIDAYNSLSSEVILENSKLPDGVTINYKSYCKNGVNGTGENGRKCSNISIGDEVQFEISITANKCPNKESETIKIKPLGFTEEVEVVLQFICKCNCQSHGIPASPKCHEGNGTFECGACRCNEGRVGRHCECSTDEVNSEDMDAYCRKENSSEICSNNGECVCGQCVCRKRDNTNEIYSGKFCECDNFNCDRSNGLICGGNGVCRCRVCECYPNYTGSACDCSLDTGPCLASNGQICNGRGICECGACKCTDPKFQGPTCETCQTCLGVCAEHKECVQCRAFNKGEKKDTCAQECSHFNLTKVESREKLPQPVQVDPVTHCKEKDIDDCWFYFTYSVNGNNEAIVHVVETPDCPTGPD

Off Target (α1β1, α2β1 and/or α10β1) | Murine α11β1 ELISA (mouse α11β1) | CHO-K1 FACS [1] | Molecule
No | No | Yes | 5A7: rabbit anti-α11β1 mAb; heavy chain SEQ ID NO: 193, light chain SEQ ID NO: 194 (antibody) heavy: METGLRWLLLVAVLKGVQCQSLEESGGGLVQPEGSLTLACTASGFSFSSYYYICWVRQAPGTGLEWIGCINTGSDDTHYASWLKGRFTFSKASSTTLTLQMTSLTAADTATYFCARSSGSSDDAYDLWGPGTLVTVSSGQPKAPSVFPLAPCCGDTPSSTVTLGCLVKGYLPEPVTVTWNSGTLTNGVRTFPSVRQSSGLYSLSSVVSVTSSSQPVTCNVAHPATNTKVDKTVAPSTCSKPMCPPPELPGGPSVFIFPPKPKDTLMISRTPEVTCVVVDVSQDDPEVQFTWYINNEQVRTARPPLREQQFNSTIRVVSTLPIAHQDWLRGKEFKCKVHNKALPAPIEKTISKARGQPLEPKVYTMGPPREELSSRSVSLTCMINGFYPSDISVEWEKNGKAEDNYKTTPTVLDSDGSYFLYSKLSVPTSEWQRGDVFTCSVMHEALHNHYTQKSISRSPGK light: MDTRAPTQLLGLLLLWLPGARCDVVMTQTPASVSEPVGGAVTIKCQASQSIGSNLAWYQHKPGQPPKLLIYFASSLASGVSSRFKGGRSGTQFTLTISDLECADAATYYCHCTYYPLSYVTFGGGTEVVVKGDPVAPTVLIFPPAADQVATGTVTIVCVANKYFPDVTVTWEVDGTTQTTGIENSKTPQNSADCTYNLSSTLTLTSTQYNSHKEYTCKVTQGTTSVVQSFNRGDC
No | No | Yes | 3B1: rabbit anti-α11β1 mAb; heavy chain SEQ ID NO: 201, light chain SEQ ID NO: 202 (antibody) heavy: METGLRWLLLVAVLKGVQCQEQLEESGGGLVKPEGSLTLTCKASGFDLSSGYDMCWVRQAPGKGLEWIACIYADYSGSTYYASWVNGRFTISSSTSLNTVDLKMTSLTAADTATYFCARGATGNGGYGYYFNLWGPGTLVTVSSGQPKAPSVFPLAPCCGDTPSSTVTLGCLVKGYLPEPVTVTWNSGTLTNGVRTFPSVRQSSGLYSLSSVVSVTSSSQPVTCNVAHPATNTKVDKTVAPSTCSKPMCPPPELPGGPSVFIFPPKPKDTLMISRTPEVTCVVVDVSQDDPEVQFTWYINNEQVRTARPPLREQQFNSTIRVVSTLPIAHQDWLRGKEFKCKVHNKALPAPIEKTISKARGQPLEPKVYTMGPPREELSSRSVSLTCMINGFYPSDISVEWEKNGKAEDNYKTTPTVLDSDGSYFLYSKLSVPTSEWQRGDVFTCSVMHEALHNHYTQKSISRSPGK light: MDTRAPTQLLGLLLLWLPGARCADIVMTQTPASVSEPVGGTVTIKCQASQNINSGLAWYQQKPGQPPKLLIYKASTLASGVSSRFKGSGSGTEFTLTISDLECADAATYYCQTYYYSSSSSDNAFGGGTEVVVKGDPVAPTVLIFPPAADQVATGTVTIVCVANKYFPDVTVTWEVDGTTQTTGIENSKTPQNSADCTYNLSSTLTLTSTQYNSHKEYTCKVTQGTTSVVQSFNRGDC
No | Yes | No | 10-L15: mouse anti-α11β1 mAb; VH SEQ ID NO: 119, VL SEQ ID NO: 120 (antibody, V domains shown) VH: QVQLQQSGPELVRPGASVKMSCKASGYTFTSYWMHWVKQRPGQGLEWIGMIDPSNSETWLNQKFKDKATLNVDKSSNTAYMQLSSLTSEDSAVYYCARYDGYYDYWGQGTTLTVSS VL: NIVLTQSPASLAVSLGQRATISCRASESVDSYGNSFMHWYQQKPGQPPKLLIYLASNVESGVPARFSGSGSRTDFTLTIDPVEADDAATYYCQQNNEDPWTFGGGTKLEIK
